Laboratory results reported in the nanobody polyreactivity screen of Harvey et al. (2022).

Experiment: yeast display, Sf9 membrane polyspecificity reagent, FACS + sequencing; frameworks hold sequencing errors
Summary of the method: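 In a synthetic yeast display library (Saccharomyces cerevisiae BJ5465), nanobody expression was induced with galactose for 36–48 hours. FACS gates were set low and high (top ~1%) using anti-HA fluorescence for expression and streptavidin fluorescence for binding of the Sf9 membrane reagent. Each polyreactivity label is drawn from the gate of origin.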

| Sequence | polyreactivity (PSR sort gate) |
| --- | --- |
| QVQLVESGGGLVQAGGSLRLSCAASGSIFYPYAMGWYRQANGKERELDAAITWRGGRTYYADSVKGRFTISRDNAKNTVYLQMNSLKPEDTAVYYCAAGWLTRSYEYDYWGQGTQVTVSS | high polyreactivity |
| QVQLVESGGGLVQAGGSLRLSCAASGSIFYPYAMGWYRQAPGKERELVAAINWGGTITYYADSVKGRFTISRDNAKNTVYLQMNSLKPEDTAVYYCAAKYKGYRYYYWGQGTQVTVSS | high polyreactivity |
| QVQLVESGGGLVQAGGSLRLSCAASGSIFYPYAMGWYRQAPGKERELVAAIRFSGGRTYYADSVKGRFTISRDNAKNTVYLQMNSLKPEDTAVYYCAAEYYGIYSPYDYWGQGTQVTVSS | high polyreactivity |
| QVQLVESGGGLVQAGGSLRLSCAASGSIFYPYAMGWYRQAPGKERELVAAITTGGGSTYADSVKGRFTISRDNAKNTVYLQMNSLKPEDTAVYYCNTDEYDIGSVYTLWEYDYWGQGTQVTVSS | low polyreactivity |
| QVQLVESGGGLVQAGGSLRLSCAASGSIFYPYAMGWYRQAPGKERELVAGISRSGASTYYADSVKGRFTISRDNAKNTVYLQMNSLKPEDTAVYYCAADDWTRNYWGQGTEVTVSS | low polyreactivity |
| QVQLVESGGGLVQAGGSLRLSCAASGSIFYPYAMGWYRQAPGKERELVARISSAGGTYYADSVKGRFTISRDNAKNTVYLQMNSLKPEDTAVYYCAAQARYRYYYWGQGTQVTVSS | high polyreactivity |
| QVQLVESGGGLVQAGGSLRLSCAASGSIFYQYAMGWYRQAPGKERELVAAISRSGGSTYYADSVKGRFTISRDNAKNTVYLQMISLKPEDTAVYYCAARAVRAAYDYWGLGTQVTVSS | low polyreactivity |
| QVQLVESGGGLVQAGGSLRLSCAASGSIFYQYAMGWYRQAPGKERELVARITWSSGSTYYADSVKGRFTISRDNAKNTVYLQMNSLKPEDTAVYYCNVVYTGTSYIYYYWGQGTQVTVSS | high polyreactivity |
| QVQLVESGGGLVQAGGSLRLSCAASGSIFYRNAMGWYRQAPGKERELGAAISWSAARTYYADSVKGRFTISRDNAKNTVYLQMNSLKPEDTAVYYCAAYQTSRYKYEYWGQGTQVTVSS | high polyreactivity |
| QVQLVESGGGLVQAGGSLRLSCAASGSIFYRNAMGWYRQAPGKERELVAAISARGGRTNYADSVKGRFTISRDNAKNTVYLQMNSLKPEDTAVYYCNTADSWYHRSQAYDYWGQGTQVTVSS | high polyreactivity |
| QVQLVESGGGLVQAGGSLRLSCAASGSIFYRNAMGWYRQAPGKERELVAAISRGGSTNYADSVKGRFTIERDNAKNTVYLQMNSLKPEDTAVYYCNALYHGDYDYWGQGTQVTVSS | high polyreactivity |
| QVQLVESGGGLVQAGGSLRLSCAASGSIFYRNAMGWYRQAPGKERELVAAISSDGSTNYADSVKGRFTISRDNAMNTVDLQMNSLKPEDTAVYYCAAPWTQILDYWGQGTQVTVSS | low polyreactivity |
| QVQLVESGGGLVQAGGSLRLSCAASGSIFYRNAMGWYRQAPGKERELVAGITWRGGRTYYADSVKGRFTISRDNAKNTVYLQMNSLKPEDTAVYYCAATYYWYGHPSRRYDYWGQGTQVTVSS | high polyreactivity |
| QVQLVESGGGLVQAGGSLRLSCAASGSIFYRNGMGWYRQAPGKERELVAAISGRGGSTNYADSVKGRFTISRDNAKNTVYLQMNSLKPEDTAVYYCNRYGVSNILVRGGYWGQGTQVTVSS | high polyreactivity |
| QVQLVESGGGLVQAGGSLRLSCAASGSIFYRNVMGWYRPAPGKERELVAVITSDGSTNYADSVKGRFTISRDNAKNTVYLQMNSLKPEVTAVYYCNAHYAFYGPGYPIYWIYEYWGQGTQVTVSS | low polyreactivity |
| QVQLVESGGGLVQAGGSLRLSCAASGSIFYRNVMGWYRQAPGKERELVAAISQRGGSTYYADSVKGRFTISRDKAKNTVFLQMNSLKPEDTAVYYCNAASRGAGTSIWSWYDLWGQGTQVTVSS | low polyreactivity |
| QVQLVESGGGLVQAGGSLRLSCAASGSIFYRNVMGWYRQAPGKERELVATISRGGTTNYADSVKGRFTISRDNAKNTVYLQMNSLKPEDTAVYYCALKQSYYFGSYFYGHEYYYWGPGTQVTVSS | low polyreactivity |
